Experimental data: patent US20060035283A1 (CHILDREN S MEDICAL CENTER, published 2006)

B1: full-length mouse RasGRF1 (other, UniProt P27671 1-1262, looked up)
chain: MQKAIRLNDGHVVTLGLLAQKDGTRKGYLSKRSADNPKWQTKWFALLQNLLFYFESDSSPRPSGLYLLEGSICKRAPSPKRGTSSKESGEKQQHYFTVNFSNDSQKTLELRTEDAKDCDEWVAAIARASYKILATEHEALMQKYLHLLQVVETEKTVAKQLRQQLEDGEVEIERLKTEVTITNLIKDNDRIQSSNKAGSADDEDSDIKKIKKVQSFLRGWLCRRKWKNIIQDYIRSPHADSMRKRNQVVFSMLEAEAEYVQQLHILVNNFLRPLRMAASSKKPPITHDDVSSIFLNSETIMFLHQIFYQGLKARISSWPTLVLADLFDILLPMLNIYQEFVRNHQYSLQILAHCKQNRDFDKLLKQYEAKPDCEERTLETFLTYPMFQIPRYILTLHELLAHTPHEHVERNSLDYAKSKLEELSRIMHDEVSETENIRKNLAIERMITEGCEILLDTSQTFVRQGSLMQMSLSEKSKSSRGRLGSLSTKKEGERQCFLFSKHLIICTRGSGGKLHLTKNGVISLIDCTLLDEPENLDDEAKGAGPEIEHLEFKIGVEPKDSLPFTVILVASTRQEKAAWTSDIIQCVDNIRCNGLMMNAFEENSKVTVPQMIKSDASLYCDDVDIRFSKTMNSCKVLQIRYASVERLLERLTDLRFLSIDFLNTFLHSYRVFTNAMVVLDKLINIYRKPMSAIPARSLELLFSSSHNAKLLYGDAPKSPRASRKFSSPPPLAIGTSSPSRRRKLSLNIPIITGGKALELASLGCSSDSYANIHSPISPFGKTTLDTGKLCMASSLPKTPEEIDVPATIPEKPGELSASRKHSSDVLKEESEDDQNHSDEDNTEVSPVKSPPTPKSFLNRTITEFPFFNYNNGILMTTCRDLVDNNRSTLSATSAFAIATAGANEGPSNKEVFRRMSLANTGFSSDQRNIDKEFVIRRAATNRVLNVLRHWVTKHTQDFDTDDTLKYRVICFLEEVMHDPDLLTQERKAAANIIRTLTLEETTEQHSMLEEVILMTEGVKTEPFENHPALEIAEQLTLLDHLVFKSIPYEEFFGQGWMKAEKYERTPYIMKTTKHFNHVSNFIASEIIRNEDISARASAIEKWVAVADICRCLHNYNAVLEITSSINRSAIFRLKKTWLKVSKQTKSLLDKLQKLVSSDGRFKNLRESLRNCDPPCVPYLGMYLTDLVFIEEGTPNYTEDGLVNFSKMRMISHIIREIRQFQQTTYKIDPQPKVIQYLLDESFMLDEESLYESSLLIEPKLPT
notes: Full-length; also called in vitro translated RasGRF1; mouse RasGRF1 in pcDNA3

Experiments:
[1] = molecular target: B1; test: co-immunoprecipitation of in vitro translated proteins with AU1 antibody
[2] = molecular target: T1, in vitro translated full-length NR2B (Rattus norvegicus (Rat), UniProt Q00960 1-1482, limits assumed); test: co-immunoprecipitation of in vitro translated proteins with anti-HA
T1 construct: Full-length, 35S-labelled, translated in vitro
Protocol: For in vitro binding experiments, equimolar amounts of in vitro translated ³⁵S-labeled proteins (calculated from radioactivity of the excised protein band and cysteine content in the specific fragment) were incubated with a 3-fold molar excess of translated RasGRF1 for 30 min at 30° C., diluted with RIPA buffer, and immunoprecipitated with anti-HA-agarose (Santa Cruz). In competition experiments, RasGRF1 and NR2B were immunoprecipitated for 2 hr at 4° C. from solubilized rat brain microsomes in the presence of 10 μM NusA, 10 μM NusA-RasGRF1-BD, or 5 μM NusA-NR2B-BD.

[3] = molecular target: T2, GFP rat NR2A (expressed in HEK293T cells) (rat, UniProt Q00959 23-1464); test: co-immunoprecipitation from co-transfected HEK293T cells
T2 construct: whole, on cells; not shown: GFP
Protocol: Transfected cells were solubilized in lysis buffer (100 mM Tris-Cl [pH 8.5], 500 mM NaCl, 1% Triton X-100) supplemented with corn plete protease inhibitor (Roche) and immunoprecipitated with NR2B (Santa Cruz, sc-9057), NR1, or NR2A (Chemicon) antibody (5 μg/ml), washed with lysis buffer, separated on SDS gel, and blotted on PVDF. Blots were probed with anti-RasGRF1 (Santa Cruz) and the appropriate NR subunit antibody. 6- to 8-week-old rat brain P2 microsomes were isolated and solubilized as described (Luo, J., et al. (1997) Mol. Pharmacol. 51, 79-86). 80 μg of solubilized protein were immunoprecipitated with NR2B, RasGRF1, or pooled rabbit IgG, and immunoprecipitated proteins were probed on Western blot with RasGRF1 and NR2B antibodies. All immunoprecipitation experiments were only taken as valid if repeated 3-5 times with similar results. Routine negative controls with antigen pre-absorption were carried out for antibodies used in immunoprecipitation experiments. Also, all immunoprecipitating antibodies were tested for the cross-reactivity with in vitro translated co-immunoprecipitated molecules.

T1 sequence (Q00960 other isoform, or with tags, fused parts or gaps limits assumed): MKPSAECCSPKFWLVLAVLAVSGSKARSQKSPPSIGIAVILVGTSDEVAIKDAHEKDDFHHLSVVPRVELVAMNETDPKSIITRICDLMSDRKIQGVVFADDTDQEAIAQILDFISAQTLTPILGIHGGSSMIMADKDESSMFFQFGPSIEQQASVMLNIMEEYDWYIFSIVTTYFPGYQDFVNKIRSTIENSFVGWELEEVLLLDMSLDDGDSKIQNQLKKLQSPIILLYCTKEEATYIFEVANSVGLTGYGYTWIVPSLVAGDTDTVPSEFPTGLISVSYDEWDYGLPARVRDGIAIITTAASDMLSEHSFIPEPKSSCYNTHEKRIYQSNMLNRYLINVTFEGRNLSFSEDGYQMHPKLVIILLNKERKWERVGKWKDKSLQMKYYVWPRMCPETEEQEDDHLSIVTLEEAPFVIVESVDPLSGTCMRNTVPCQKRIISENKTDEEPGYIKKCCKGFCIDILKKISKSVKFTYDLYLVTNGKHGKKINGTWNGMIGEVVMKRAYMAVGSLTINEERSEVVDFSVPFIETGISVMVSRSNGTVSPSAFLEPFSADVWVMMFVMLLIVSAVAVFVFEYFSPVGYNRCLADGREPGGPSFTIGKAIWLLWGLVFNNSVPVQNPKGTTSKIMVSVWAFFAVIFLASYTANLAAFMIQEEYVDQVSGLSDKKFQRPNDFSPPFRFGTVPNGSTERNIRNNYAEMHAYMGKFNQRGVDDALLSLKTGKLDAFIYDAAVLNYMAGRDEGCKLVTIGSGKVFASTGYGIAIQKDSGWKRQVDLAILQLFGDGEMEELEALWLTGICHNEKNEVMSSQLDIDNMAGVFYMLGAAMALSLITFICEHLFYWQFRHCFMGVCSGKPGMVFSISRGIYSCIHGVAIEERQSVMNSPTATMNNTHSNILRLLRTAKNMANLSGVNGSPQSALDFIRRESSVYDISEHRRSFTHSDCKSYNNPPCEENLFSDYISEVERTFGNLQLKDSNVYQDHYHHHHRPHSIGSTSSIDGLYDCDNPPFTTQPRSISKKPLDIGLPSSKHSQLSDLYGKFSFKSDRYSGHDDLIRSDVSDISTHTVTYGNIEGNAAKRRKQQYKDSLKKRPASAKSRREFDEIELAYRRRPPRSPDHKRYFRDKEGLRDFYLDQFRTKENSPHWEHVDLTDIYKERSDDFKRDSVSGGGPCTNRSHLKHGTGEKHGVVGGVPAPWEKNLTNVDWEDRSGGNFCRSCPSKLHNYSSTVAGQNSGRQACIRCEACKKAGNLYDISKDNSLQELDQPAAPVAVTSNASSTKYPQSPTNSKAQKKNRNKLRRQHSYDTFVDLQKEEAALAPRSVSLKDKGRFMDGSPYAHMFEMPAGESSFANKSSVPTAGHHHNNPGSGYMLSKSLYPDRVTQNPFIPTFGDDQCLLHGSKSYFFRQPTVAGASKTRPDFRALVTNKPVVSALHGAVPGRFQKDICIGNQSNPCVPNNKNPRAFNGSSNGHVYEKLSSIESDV
T2 sequence (Q00959 23-1464): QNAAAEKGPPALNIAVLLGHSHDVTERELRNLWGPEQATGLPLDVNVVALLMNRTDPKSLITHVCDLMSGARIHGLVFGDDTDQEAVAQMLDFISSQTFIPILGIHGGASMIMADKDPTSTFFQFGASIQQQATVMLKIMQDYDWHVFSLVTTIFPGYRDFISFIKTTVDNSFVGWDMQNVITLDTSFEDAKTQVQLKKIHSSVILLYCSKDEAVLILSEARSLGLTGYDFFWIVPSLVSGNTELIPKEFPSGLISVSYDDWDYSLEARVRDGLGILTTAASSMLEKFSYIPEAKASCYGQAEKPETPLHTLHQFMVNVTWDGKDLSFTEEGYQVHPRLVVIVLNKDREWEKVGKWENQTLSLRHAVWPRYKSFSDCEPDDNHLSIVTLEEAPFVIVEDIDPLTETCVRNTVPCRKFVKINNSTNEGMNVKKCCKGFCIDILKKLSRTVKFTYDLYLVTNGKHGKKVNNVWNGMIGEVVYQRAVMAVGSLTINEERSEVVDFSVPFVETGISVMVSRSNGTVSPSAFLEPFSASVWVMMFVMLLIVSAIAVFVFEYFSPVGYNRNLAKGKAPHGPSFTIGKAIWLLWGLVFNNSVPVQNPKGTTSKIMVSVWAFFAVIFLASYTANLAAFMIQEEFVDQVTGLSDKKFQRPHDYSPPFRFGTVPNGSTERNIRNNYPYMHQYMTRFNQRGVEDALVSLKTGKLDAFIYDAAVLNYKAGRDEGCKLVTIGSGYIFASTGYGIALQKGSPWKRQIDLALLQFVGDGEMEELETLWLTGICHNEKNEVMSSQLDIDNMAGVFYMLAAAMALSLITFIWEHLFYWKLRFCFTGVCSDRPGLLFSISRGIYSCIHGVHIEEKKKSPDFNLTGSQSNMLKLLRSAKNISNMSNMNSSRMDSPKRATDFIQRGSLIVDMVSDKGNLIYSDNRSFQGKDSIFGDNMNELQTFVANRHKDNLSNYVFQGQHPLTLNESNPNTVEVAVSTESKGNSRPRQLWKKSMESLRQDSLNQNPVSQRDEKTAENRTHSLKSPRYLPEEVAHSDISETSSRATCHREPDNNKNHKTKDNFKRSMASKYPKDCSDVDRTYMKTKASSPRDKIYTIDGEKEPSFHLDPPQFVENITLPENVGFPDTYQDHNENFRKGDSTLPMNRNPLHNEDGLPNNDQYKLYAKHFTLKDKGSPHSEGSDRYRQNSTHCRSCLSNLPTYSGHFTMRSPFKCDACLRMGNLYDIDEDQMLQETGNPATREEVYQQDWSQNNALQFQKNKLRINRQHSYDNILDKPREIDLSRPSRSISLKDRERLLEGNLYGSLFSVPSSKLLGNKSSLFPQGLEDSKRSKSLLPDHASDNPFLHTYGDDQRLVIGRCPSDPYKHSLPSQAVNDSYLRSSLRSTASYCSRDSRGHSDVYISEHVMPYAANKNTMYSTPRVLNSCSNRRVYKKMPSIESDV

Row | binding result [2] | Binder | other results
1 | – | AU1-tagged NR2B fragment, amino acids 1136-1310 (other, In vitro translated, 35S-labelled; also called distal portion of the bait; not shown: AU1 tag encoded by the 5' primer) QFRTKENSPHWEHVDLTDIYKERSDDFKRDSVSGGGPCTNRSHLKHGTGEKHGVVGGVPAPWEKNLTNVDWEDRSGGNFCRSCPSKLHNYSSTVAGQNSGRQACIRCEACKKAGNLYDISKDNSLQELDQPAAPVAVTSNASSTKYPQSPTNSKAQKKNRNKLRRQHSYDTFVDL | binding result [1]: no binding
2 | no binding | HA-tagged RasGRF1 fragment, amino acids 1-720 (other, In vitro translated, 35S-labelled; also called N-terminal portion of RasGRF1; not shown: HA tag encoded by the 5' primer) MQKAIRLNDGHVVSLGLLAQRDGTRKGYLSKRSSDNPKWQTKWFALLQNLLFYFESDSSSRPSGLYLLEGSICKRMPSPKRGTSSKESDKQHHYFTVNFSNDSQKSLELRTDDSKDCDEWVAAIARASYKILATEHEALMQKYLHLLQVVETEKTVAKQLRQQLEDGEVEIERLKAEIANLIKDNERIQSNQLVAPEDEDSDIKKIKKVQSFLRGWLCRRKWKNIIQDYIRSPHADSMRKRNQVVFSMLEAEAEYVQQLHILVNNFLRPLRMAASSKKPPITHDDVSSIFLNSETIMFLHQIFYQGLKARIASWPTLVLADLFDILLPMLNIYQEFVRNHQYSLQILAHCKQNRDFDKLLKQYEAKPDCEERTLETFLTYPMFQIPRYILTLHELLAHTPHEHVERNSLDYAKSKLEELSRVMHDEVSETENIRKNLAIERMITEGCEILLDTSQTFVRQGSLIQVPMSEKGKINKGRLGSLSLKKEGERQCFLFSKHLIICTRGSGSKLHLTKNGVISLIDCTLLDDPENMDDDGKGQEVDHLDFKIWVEPKDSPPFTVILVASSRQEKAAWTSDIIQCVDNIRCNGLMMNAFEENSKVTVPQMIKSDASLYCDDVDIRFSKTMNSCKVLQIRYASVERLLERLTDLRFLSIDFLNTFLHSYRVFTDAVVVLDKLISIYKKPITAIPARSLELLFSSSHNTKLLYGDAPKSPRASRKFS | –
3 | – | B1 | binding result [3]: no binding
4 | no binding | HA-tagged RasGRF1 fragment, amino acids 714-841 (other, In vitro translated, 35S-labelled; not shown: HA tag encoded by the 5' primer) RASRKFSSPPPLAIGTSSPVRRRKLSLNIPIITGGKALELASLGCPSDGYTNIHSPISPFGKTTLDTSKLCVASSLTRTPEEIDMTTLEESSGFRKPTSDILKEESDDDQSDVDDTEVSPPTPKSFRN | –
5 | no binding | HA-tagged RasGRF1 fragment, amino acids 835-913 (other, In vitro translated, 35S-labelled; not shown: HA tag encoded by the 5' primer) TPKSFRNRITQEFPLFNYNSGIMMTCRDLMDSNRSPLSATSAFAIATAGANESPANKEIYRRMSLANTGYSSDQRNIDK | –
